From paper PMC6388921, “An alkaline active feruloyl-CoA synthetase from soil metagenome as a potential key enzyme for lignin valorization strategies” (PLoS ONE, 2019)

Molecular target: the molecule itself
Experiment: dynamic light scattering; FCS1 at 1 mg/mL in 20 mM Tris-HCl pH 7; hydrodynamic radius converted to mass assuming a spherical molecule

B1: feruloyl-CoA synthetase FCS1 (enzyme, UniProt A0A2P1BT06 1-707, looked up)
chain: MGERRFSNQQIDRLLRPKSVAVIGASDRKGALGATLLNNLVQYEFSGDIYPVNPKRDELLGLKVYHEVAELPEGIDCAVLAIPRPFVIDTVRQLAQRGCGAVVIYSAGFSEAGEEGMKDQLELAAIAAEYGMVIEGPNCLGCTNYVERVPLTFVETNMQTPPKGTRAVGIASQSGALAAVLATALHPRGLYVSSSVSTGNEAASGVEDYVEWLVDDEDTHVIAMYVESLRRPKAFIAAARRAHAAGKPIVMLHPGKSNKAQESAATHTGAMAGDYALMKTKLAREGVIFADTLEELADITEIALRCRALPGANMAVLGESGALRGLAFDIAEDIGLDLIHLDDDNSPALRAILPDFVPVSNPTDITALGLSEPEIYTKVLTALLEDERIGSVVASIIQSDPITSGIKFPHIIKVLDGGTFAKPLVFAGVDEGATVPKEYIDGLRKVGIPWFPSTERAYRAIARLADLSKRDLADNSGDPIVVPGLDAVSGVVPEYKAKELLRPLGIAFPPSQFAANAEAAAAAARAIGYPVVMKAQAAALGHKSDAGGVILNLKTDDEVRDAFARIYGNVEAYDRSIALDGVLIEKMGKMGTEMIVGAKNDPQWGPVVLAGFGGVTAEILKDVKLFTPEMDAAAVQRGLLELKQAPILKGYRGAPALDVAALAELIVQIGRVMAGNPSIREIDLNPVIIHPAGEGVAALDALMLVER
notes: feruloyl-CoA synthetase FCS1 from the metagenome of a lignin-degrading microbial consortium from sugarcane plantation soil; GenBank MG214406; codon-optimised, synthesised gene; predicted molecular mass 74.9 kDa; No tag cleavage is described
stoichiometry N: 2
